From publication PMC3475183 (Cell, 2011)

Biological target: 3BP2 Tankyrase targeting peptide
Assay: fluorescence polarisation

B1: recombinant N-terminal region of TNKS2 containing all five ARCs (domain or fragment)
chain: AVEPAARELFEACRNGDVERVKRLVTPEKVNSRDTAGRKSTPLHFAAGFGRKDVVEYLLQNGANVQARDDGGLIPLHNACSFGHAEVVNLLLRHGADPNARDNWNYTPLHEAAIKGKIDVCIVLLQHGAEPTIRNTDGRTALDLADPSAKAVLTGEYKKDELLESARSGNEEKMMALLTPLNVNCHASDGRKSTPLHLAAGYNRVKIVQLLLQHGADVHAKDKGDLVPLHNACSYGHYEVTELLVKHGACVNAMDLWQFTPLHEAASKNRVEVCSLLLSYGADPTLLNCHNKSAIDLAPTPQLKERLAYEFKGHSLLQAAREADVTRIKKHLSLEMVNFKHPQTHETALHCAAASPYPKRKQICELLLRKGANINEKTKEFLTPLHVASEKAHNDVVEVVVKHEAKVNALDNLGQTSLHRAAYCGHLQTCRLLLSYGCDPNIISLQGFTALQMGNENVQQLLQEGISLGNSEADRQLLEAAKAGDVETVKKLCTVQSVNCRDIEGRQSTPLHFAAGYNRVSVVEYLLQHGADVHAKDKGGLVPLHNACSYGHYEVAELLVKHGAVVNVADLWKFTPLHEAAAKGKYEICKLLLQHGADPTKKNRDGNTPLDLVKDGDTDIQDLLRGDAALLDAAKKGCLARVKKLSSPDNVNCRDTQGRHSTPLHLAAGYNNLEVAEYLLQHGADVNAQDKGGLIPLHNAASYGHVDVAALLIKYNACVNATDKWAFTPLHEAAQKGRTQLCALLLAHGADPTLKNQEGQTPLDLVSADDVSALLTAAMPP
A Kd of 500 ± 100 nM was found for B1 in this work.
